Source: patent US20190024087

The sequences below were run against T1, GDF11 (mature human) (Homo sapiens) (UniProt O95390) (assay: filter). Details: NapdU at all P (n) positions; 0.1 uM Z-block.
T1 sequence: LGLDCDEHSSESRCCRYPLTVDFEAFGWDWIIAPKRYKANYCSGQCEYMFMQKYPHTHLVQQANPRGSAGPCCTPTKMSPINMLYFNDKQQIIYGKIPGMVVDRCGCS
With “CCCTGCGCCTTCGGACTTGATTTAAGTTTAGCCGCTTGCTCACATCACAA [12060-28_38]” the Kd was 1.1 nM. “CCCTGCGCCTTCGGACTTGCTTTAAGTTTAGCCGCTCGCTCACATCACAA [12060-204_3]” showed a Kd of 0.94 nM. In the case of “CCCTGCGCCTTCGGACTTGCTTTAAGTTTAGCCGCTTGCTCACAACACAA [12060-300_3]”, the Kd is reported as 0.99 nM. Sequence “CCCTGCGCCTTCGGACTTGCTTTAAGTTTAGCCGCTTGCTCACGTCACAA [12060-130_3]” has a Kd of 0.61 nM. For “CCCTGCGCCTTCGGACTTGCTTTAAGTTTAGCCGCTTGCTTACATCACAA [12060-116_3]”, the Kd was 1.14 nM. Work on “CCCTGCGCCTTCGGACTTGCTTTAAGTTTAGCCGCTTGTTCACATCACAA [12060-4_3]” yielded a Kd of 0.9 nM. “CCCTGCGCCTTCGGACTTGCTTTACGTTTAGCCGCTTGCTCACATCACAA [12060-238_3]” showed a Kd of 3.4 nM. “CCCTGCGCCTTCGGACTTGCTTTAGGTTTAGCCGCTTGCTCACATCACAA [12060-28_40]” gave a Kd of 1.4 nM. For “CCCTGCGCCTTCGGACTTGGTTTAAGTTTAGCCGCTTGCTCACATCACAA [12060-28_39]”, the Kd was 1.2 nM. In the case of “CCCTGGTTGACAAGGTACTGGACTTGATTTACGTTTAGCCTCAAGCACAA [12058-386_3]”, the Kd is reported as 6.7 nM. With “CCCTGTGCCTTCGGACTTGCTTTAAGTTTAGCCGCTTGCTCACATCACAA [12060-32_3]” the Kd was 1.45 nM. Work on “CTGTGAACTTGATTTAAGTTTAGGCACATACACCACTCCGGACGA [16139-198_3]” yielded a Kd of 0.62 nM. “CTGTGACCTTCACCCGTGACTTGGTTTACGTTTAGCGGGTAGGTCACAA [16139-178_3]” was tested, and the Kd was 1.08 nM. In the case of “CTGTGACTAATGTGACCGGAGACTTGCTTTACGTTTAGCGACCTGCACAA [16139-12_3]”, the Kd is reported as 1.7 nM. Sequence “CTGTGAGTGTACCTCGCGCTTGATTTACGTTTAGGCGAGGCAGGCCACAA [16139-30_3]” has a Kd of 0.92 nM. Work on “CTGTGCGTACTGACTTGATTTACGTTTTAGCGATGCATGCTTGAGCCACAA [16139-122_3]” yielded a Kd of 2.23 nM. “CTGTGCTAAGACTGCGGACTTGATTTAGGTTTAGCCGCAAGAAGTCACAA [16139-37_3]” was tested, and the Kd was 1.21 nM. Work on “CTGTGGACTGAGTTGGATGGGACTTGATTTAAGTTTAGCCCGCAACACAA [16139-3_3]” yielded a Kd of 1.58 nM. “CTGTGGTTAACGACGACTTGATTTACGTTTAGCGGCACCTTACACCACAA [16139-19_3]” was tested, and the Kd was 1.7 nM.

Same assay, conditions: NapdU at all P (n) positions; 0.1 uM Z-block; Table 5 gives 4.17 nM, p194 1.74 nM with 1 uM Z-block
“CCCTGCGCCTTCGGACTTGCTTTAAGTTTAGCCGCTTGCTCACATCACAA [12060-28_3]” was tested, and the Kd was 1.7 nM.

Same assay, conditions: NapdU at all P (n) positions; 0.1 uM Z-block; Table 5 gives 6.52 nM
Sequence “CCCTGTGAGACTTGATTTACGTTTAGCTGCTAACATGGGGAACCACACAA [12060-16_3]” has a Kd of 6.5 nM.
